The results in this text go back to patent publication US20170096461A1 (IMMATICS BIOTECHNOLOGIES, published 2017).

This test concerns the target T1, HLA-A*02:01 (peptide-receptive MHC class I monomer after UV-ligand exchange) (human).
T1 construct: Monomers made with a UV-sensitive peptide that is cleaved by UV and exchanged for the test peptide; captured on streptavidin plates; also called MHC molecules
Nature of the test: UV-ligand exchange + anti-b2m ELISA; exchange yield grade: + >=10%, ++ >=20%, +++ >=50, ++++ >=75%. The text has this:
Candidate peptides for T cell based therapies according to the present invention were further tested for their MHC binding capacity (affinity). The individual peptide-MHC complexes were produced by UV-ligand exchange, where a UV-sensitive peptide is cleaved upon UV-irradiation, and exchanged with the peptide of interest as analyzed. Only peptide candidates that can effectively bind and stabilize the peptide-receptive MHC molecules prevent dissociation of the MHC complexes. To determine the yield of the exchange reaction, an ELISA was performed based on the detection of the light chain (β2m) of stabilized MHC complexes. The assay was performed as generally described in Rodenko et al. (Rodenko et al., 2006).
96 well MAXISorp plates (NUNC) were coated over night with 2 ug/ml streptavidin in PBS at room temperature, washed 4× and blocked for 1 h at 37° C. in 2% BSA containing blocking buffer. Refolded HLA-A*02:01/MLA-001 monomers served as standards, covering the range of 15-500 ng/ml. Peptide-MHC monomers of the UV-exchange reaction were diluted 100 fold in blocking buffer. Samples were incubated for 1 h at 37° C., washed four times, incubated with 2 ug/ml HRP conjugated anti-β2m for 1 h at 37° C., washed again and detected with TMB solution that is stopped with […]. Absorption was measured at 450 nm. Candidate peptides that show a high exchange yield (preferably higher than 50%, most preferred higher than 75%) are generally preferred for a generation and production of antibodies or fragments thereof, and/or T cell receptors or fragments thereof, as they show sufficient avidity to the MHC molecules and prevent dissociation of the MHC complexes.
Consider FLFPVYPLI [peptide FLFPVYPLI (SEQ ID NO: 68)], for which the peptide exchange yield lay within 50 to 75%.

Regarding VLFHQLQEI [peptide VLFHQLQEI (SEQ ID NO: 64)], the peptide exchange yield lay in the range of 50 to 75%.

As for LLMSTENEL [peptide LLMSTENEL (SEQ ID NO: 63)], the peptide exchange yield lay within 50 to 75%.

As for YLWSEVFSM [peptide YLWSEVFSM (SEQ ID NO: 43)], the peptide exchange yield lay within 50 to 75%.

As to TLHRETFYL [peptide TLHRETFYL (SEQ ID NO: 88)], the peptide exchange yield is at least 75%.

For VLLNINGIDL [peptide VLLNINGIDL (SEQ ID NO: 58)], the peptide exchange yield was at least 75%.

In the case of KAYQELLATV [peptide KAYQELLATV (SEQ ID NO: 41)], the peptide exchange yield was 50 to 75%.

Turning to LLQNNLPAV [peptide LLQNNLPAV (SEQ ID NO: 87)], the peptide exchange yield was at least 75%.

Take VMYDLITEL [peptide VMYDLITEL (SEQ ID NO: 65)]: the peptide exchange yield is 50 to 75%.

Consider KVIDYVPGI [peptide KVIDYVPGI (SEQ ID NO: 86)], for which the peptide exchange yield lay in the range of 50 to 75%.

For the molecule GLLEDERALQL [peptide GLLEDERALQL (SEQ ID NO: 42)], the peptide exchange yield is 50 to 75%.

With KLQDGVHII [peptide KLQDGVHII (SEQ ID NO: 91)], the peptide exchange yield lay within 50 to 75%.

Take AIIDGKIFCV [peptide AIIDGKIFCV (SEQ ID NO: 77)]: the peptide exchange yield was 50 to 75%.

Turning to ALIVGIPSV [peptide ALIVGIPSV (SEQ ID NO: 44)], the peptide exchange yield is at least 75%.

For the molecule SLFSQMGSQYEL [peptide SLFSQMGSQYEL (SEQ ID NO: 56)], the peptide exchange yield fell in the range of 50 to 75%.

Regarding TLLWKLVEV [peptide TLLWKLVEV (SEQ ID NO: 70)], the peptide exchange yield was 20 to 50%.

Consider MLYDIVPVV [peptide MLYDIVPVV (SEQ ID NO: 67)], for which the peptide exchange yield was 50 to 75%.

With ILMDPSPEYA [peptide ILMDPSPEYA (SEQ ID NO: 80)], the peptide exchange yield is 50 to 75%.

As to SLIGLDLSSV [peptide SLIGLDLSSV (SEQ ID NO: 48)], the peptide exchange yield fell in the range of 50 to 75%.

For the molecule ALWVAVPKA [peptide ALWVAVPKA (SEQ ID NO: 46)], the peptide exchange yield is 50 to 75%.

As to HLFDIILTSV [peptide HLFDIILTSV (SEQ ID NO: 54)], the peptide exchange yield was at least 75%.

Take SLQSLIISV [peptide SLQSLIISV (SEQ ID NO: 5)]: the peptide exchange yield is at least 75%.

On to SLSSYTPDV [peptide SLSSYTPDV (SEQ ID NO: 73)], for which the peptide exchange yield was in the range of 50 to 75%.

In the case of KLFAIPILL [peptide KLFAIPILL (SEQ ID NO: 11)], the peptide exchange yield was in the range of 50 to 75%.

On to GLLDPGMLVNI [peptide GLLDPGMLVNI (SEQ ID NO: 4)], for which the peptide exchange yield is 50 to 75%.

As for ALRETVVEV [peptide ALRETVVEV (SEQ ID NO: 93)], the peptide exchange yield was 50 to 75%.

For the molecule KAIGSLKEV [peptide KAIGSLKEV (SEQ ID NO: 72)], the peptide exchange yield was 50 to 75%.

As to VVSGATETL [peptide VVSGATETL (SEQ ID NO: 60)], the peptide exchange yield was at least 75%.

For RLLEPAQVQQL [peptide RLLEPAQVQQL (SEQ ID NO: 79)], the peptide exchange yield is 50 to 75%.

Regarding IQHDLIFSL [peptide IQHDLIFSL (SEQ ID NO: 89)], the peptide exchange yield was in the range of 50 to 75%.

For the molecule FIFEQVQNV [peptide FIFEQVQNV (SEQ ID NO: 71)], the peptide exchange yield was 50 to 75%.

FLDSLSPSV [peptide FLDSLSPSV (SEQ ID NO: 74)]: the peptide exchange yield was 50 to 75%.

With SLSGEIILHSV [peptide SLSGEIILHSV (SEQ ID NO: 45)], the peptide exchange yield lay within 20 to 50%.

On to VLLSGLTEV [peptide VLLSGLTEV (SEQ ID NO: 59)], for which the peptide exchange yield is at least 75%.

GLLEALLKI [peptide GLLEALLKI (SEQ ID NO: 47)]: the peptide exchange yield is 50 to 75%.

Take LLAEIGAVTLV [peptide LLAEIGAVTLV (SEQ ID NO: 81)]: the peptide exchange yield lay within 50 to 75%.

For the molecule KLFDRSVDL [peptide KLFDRSVDL (SEQ ID NO: 69)], the peptide exchange yield lay in the range of 20 to 50%.

LLSEEHITL [peptide LLSEEHITL (SEQ ID NO: 53)]: the peptide exchange yield is at least 75%.

As for ILDEAGVKYFL [peptide ILDEAGVKYFL (SEQ ID NO: 51)], the peptide exchange yield fell in the range of 50 to 75%.

Turning to LLIADNPQL [peptide LLIADNPQL (SEQ ID NO: 55)], the peptide exchange yield is at least 75%.

Turning to KLLEIDIDGV [peptide KLLEIDIDGV (SEQ ID NO: 83)], the peptide exchange yield lay in the range of 50 to 75%.

Regarding YLQDYTDRV [peptide YLQDYTDRV (SEQ ID NO: 92)], the peptide exchange yield lay in the range of 50 to 75%.

Turning to ALSSVIKEL [peptide ALSSVIKEL (SEQ ID NO: 82)], the peptide exchange yield is 50 to 75%.

As to AAAPGEALHTA [peptide AAAPGEALHTA (SEQ ID NO: 9)], the peptide exchange yield is 20 to 50%.

Take GLLGDIAIHL [peptide GLLGDIAIHL (SEQ ID NO: 7)]: the peptide exchange yield is 50 to 75%.

For the molecule SIMDYVVFV [peptide SIMDYVVFV (SEQ ID NO: 6)], the peptide exchange yield is at least 75%.

Consider GLLEVQVEV [peptide GLLEVQVEV (SEQ ID NO: 40)], for which the peptide exchange yield lay within 50 to 75%.

For the molecule FAYDGKDYLTL [peptide FAYDGKDYLTL (SEQ ID NO: 85)], the peptide exchange yield was in the range of 50 to 75%.

For the molecule YQAPYFLTV [peptide YQAPYFLTV (SEQ ID NO: 61)], the peptide exchange yield lay in the range of 50 to 75%.

Turning to FLLSQIVAL [peptide FLLSQIVAL (SEQ ID NO: 50)], the peptide exchange yield was in the range of 50 to 75%.

On to RLALNTPKV [peptide RLALNTPKV (SEQ ID NO: 49)], for which the peptide exchange yield is 20 to 50%.

Consider ALFPVAEDISL [peptide ALFPVAEDISL (SEQ ID NO: 94)], for which the peptide exchange yield fell in the range of 50 to 75%.

Consider ILASFMLTGV [peptide ILASFMLTGV (SEQ ID NO: 52)], for which the peptide exchange yield is at least 75%.

For SLDLHVPSL [peptide SLDLHVPSL (SEQ ID NO: 75)], the peptide exchange yield is 50 to 75%.

Turning to VLIGDVLVAV [peptide VLIGDVLVAV (SEQ ID NO: 57)], the peptide exchange yield is at least 75%.

Consider KMFENEFLL [peptide KMFENEFLL (SEQ ID NO: 84)], for which the peptide exchange yield lay within 50 to 75%.

As to TLVDNISTMAL [peptide TLVDNISTMAL (SEQ ID NO: 90)], the peptide exchange yield was 50 to 75%.

For YLNLISTSV [peptide YLNLISTSV (SEQ ID NO: 66)], the peptide exchange yield is 50 to 75%.

In the case of VMLPIGAVVMV [peptide VMLPIGAVVMV (SEQ ID NO: 62)], the peptide exchange yield was in the range of 50 to 75%.

Regarding RIIDPEDLKALL [peptide RIIDPEDLKALL (SEQ ID NO: 78)], the peptide exchange yield is at least 75%.
